Measurements from publication PMC10845952, “Mass spectrometry and split luciferase complementation assays reveal the MecA protein interactome of Streptococcus mutans” (Microbiology Spectrum, 2024).

B1: XseA fused to the RenG C-terminal domain (156-314) (natural protein, S. mutans, UniProt Q8DVB5 1-447, looked up)
chain: MSDYLSVSSLTKYLKLKFDRDPYLERVYLTGQVSNFRRRPNHQYFSLKDEKAVIQATMWSGIYRKLGFELEEGMKINVIGRVQLYEPSGSYSIIIEKAEPDGIGALAVQFEQLKKKLAEAGYFDDRHKQRLSQFVKKIGVVTSPSGAVIRDIITTVSRRFPGVDILLFPTKVQGEGAAQEVADNIRLANERTDLDLLIVGRGGGSIEDLWAFNEEIVVQAIFESHLPIISSVGHETDTTLADFAADRRAATPTAAAELATPVTKADLLAFLKERQMRSYQAVMRLIRQKDEQVKKLQRSVIFRQPERLYDAYVQKLDHLRTHLLTKVRQVYDVYDSKEHLLRQRLLSFNLSGCIQRYQAQLKQDQRLLLSHMSSQYDSKLARFEKAQDALLSLDTTRIVARGYAIVQKDNHIIQSTQQIKKGDRLHLEMKDGQVQVEVENVKQEENI
notes: Exodeoxyribonuclease VII large subunit, XseA; S. mutans UA159; not shown: RenG luciferase C-terminal domain (156-314), C-terminal, kept
B2: DnaG with the RenG C-terminal domain (156-314) fused to its N-terminus (natural protein, S. mutans, UniProt Q8DUS6 1-592, looked up)
chain: MVVDKEKIKEIKDSINIVDVIGEVVSLSRSGRNYLGLCPFHKEKTPSFNVIEDRQFFHCFGCGRSGDVFKFVEDYRNISFLESVQVLAERSGINVTLQDKSQEVKKEHPHQKLFNINGDANKFYQAVLKTTKVGETARQYLYERGLTDELITYFKIGLAPNEYDYLYQAMLKKYDEDTIINSGLFNLSDSNSIYDAFRNRIMFPLTDEFGHIIGFSGRIWTEEDTSKKLAKYKNTRSTIIFNKSYELYHLDKARTAAKKEHELYLMEGFMDVIAAYRAGIPNAVASMGTALTPEHVKHLRKFTKKVILTYDGDKAGQNAIAKSLNLLSNMAVEIVRIPGQMDPDEFIKENSEEELEKLLKQARISSAEFWIEHLKPENIDNLQAEIDYVEKIAKVIAASPSITAQNTYINKVAEFLPDFDYLQVEQAVNNERLQMRSQISEQESANQQVLIDLPVTKQLTALTKAESQLFHRLLHHDYLLNEFRNRAHFKFTTPELQELYQILKTNGEINAYDLSQLSNQLQETYYRVLEENLPEEIAEDEIRQIEDQIDKCLQRQEMRKQSKAIRESSNHGDVDTAVEGLAALIAQKRNME
notes: also called N-DnaG
B3: ThiI fused to the RenG C-terminal domain (156-314) (natural protein, S. mutans, UniProt Q8DUR1 1-405, looked up)
chain: MQYSEIMVRYGELSTKGKNRMRFINQLKRNMKHVLSIYPEVSIRADRDRAHIYLNGANYVPVAESLKQIFGIQAFSPSYKVEKSVPALEKAVQAIMVELHHEGLTFKISSKRSDHQFELDSRELNQVLGSAVFAVLPDIKAQMNHPNVNLKVEIREEAAYLSYENIKGAGGLPVGTAGKGMLMLSGGIDSPVAGYLALKRGVNIEAVHFASPPYTSPGALKKAQDLTRKLTKFGGNIQFIEVPFTEIQEEIKAKAPEAYLMTLTRRFMMRIADRIREERSGLVIINGESLGQVASQTLESMQAINAVTTTPVIRPVVTMDKLEIIDIAEKIDTFAISIQPFEDCCTIFAPDRPKTNPKIKNVEQYEARLDIEGLVARAVAGINITEITPQEESQDEVDVLIEDLL
notes: tRNA 4-thiouridine(8) synthase, ThiI; S. mutans UA159; also called Thil; not shown: RenG luciferase C-terminal domain (156-314), C-terminal, kept

Biological target: T1, MecA fused to the RenG N-terminal domain (1-155) (S. mutans, UniProt Q8DW33 1-240)
T1 construct: adaptor protein MecA; S. mutans UA159; source: S. mutans, expressed in live cells; not shown: RenG luciferase N-terminal domain (1-155), C-terminal, kept
T1 sequence: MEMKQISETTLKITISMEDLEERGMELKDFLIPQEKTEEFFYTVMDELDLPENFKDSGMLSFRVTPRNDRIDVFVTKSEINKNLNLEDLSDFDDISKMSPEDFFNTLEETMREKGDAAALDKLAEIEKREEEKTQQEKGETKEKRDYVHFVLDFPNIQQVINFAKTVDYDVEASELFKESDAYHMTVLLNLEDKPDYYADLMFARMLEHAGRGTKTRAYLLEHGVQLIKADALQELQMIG
Test: split reporter (BiFC, NanoBiT)
Details: partners not purified

Going from B1 to B2, the “relative binding affinity (%)” value rises from 3.16 ± 0.25% to 6.97 ± 0.32%.

B3 was tested, and the “relative binding affinity (%)” value was 8.92 ± 1.07%.
